Laboratory results from publication PMC9776037.

Assays:
[1] = biological target: α2 portion of the human α2δ1 protein (voltage-sensitive calcium channel subunit) (human); assay: localized surface plasmon resonance (LSPR); α2 amide-coupled to gold triangular nanoprisms on glass; sensors incubated with 1 × 10^−16 to 1 × 10^−8 M PLN or PLN domains in PBS pH 7.2; Δλ_LSPR by UV-visible spectroscopy; KD from Hill-Langmuir fit with extrapolated Bmax
[2] = biological target: α2 portion of the human α2δ1 protein (voltage-sensitive calcium channel subunit) (human); assay: localized surface plasmon resonance (LSPR); α2-functionalized sensors incubated overnight with full-length PLN (10 nM) or PLN Dm III-2 (100 nM), no GBP; Δλ_LSPR

Δλ LSPR [2] [nm]	Substance	Kd [1] [µM]
–	Perlecan domain IV-3 (PLN Dm IV-3) (domain or fragment)	280
–	Perlecan domain IV-2 (PLN Dm IV-2) (domain or fragment)	430
–	Perlecan domain IV-1 (PLN Dm IV-1) (domain or fragment)	0.14
12.7	Perlecan domain III-2, cysteine-free globular region (laminin IV-A2) (domain or fragment)	8e-05
